Laboratory results as given in patent US20040233833A1, “Methods for identifying compounds with thrapeutic potential for treatment of central Neurodegenerative diseases resulting from abnormal protein or peptide accumulation” (priority 2001, published 2004).
“And” between values parts separate entries of the source, which are not always exact repeats. Equal entries are not always repeated.

Assays:
[1] = target: T1, Human red blood cell proteasomes (Homo sapiens, UniProt P28072+P28074+Q99436); assay: Activation of fluorogenic peptide hydrolysis by the proteasome in the presence of REG variants; type: biochemical; conditions: for Stimulation of cleavage (x-fold) LLE: substrate LLE-βNA (PGPH site); for Stimulation of cleavage (x-fold) LLVY: substrate LLVY-MCA (chymotrypsin-like site); for Stimulation of cleavage (x-fold) LRR: substrate LRR-MCA (trypsin-like site); for Activation properties compared with REGα: small fluorogenic peptides, result in words
T1 construct: Human red blood cell proteasomes; from tissue; host or cells: human red blood cells
Protocol: Human red blood cell proteasomes (170 ng) were mixed with increasing amounts of purified REG variants. The reactions were started by adding 50 μl of 200 μMscu-LLVY-MCA, Boc-LRR-MCA, or Boc-LLE-βNA in 10 mM Tris, pH 7.5. After a 10 min incubation, the reaction was quenched with 200μl of cold 100% ethanol, and the released MCA or βNA ws measured fluometrically. Each data point represents the mean of three measurements from a single experiment. […] REGα (▪), REGγ(□), REGγ(K188E) or REGγ(K188D) (●), REGγ(K188H) (∘), REGγ(K188Q) or REGγ(K188N) (Δ), REGγ(K188A) (♦). The data for REGγ(K188E) and REGγ(K188D) and for REGγ(K188Q) and REGγ(K188N) were combined since their activities were indistinguishable.
Because each positive variant identified in the previous example included a mutation at Lys188, site-directed mutagenesis was used to generate a series of amino acid substitutions at this residue. Twelve mutants were constructed in which Lys188 of REGγ was changed to Ala, Arg, Asn, Asp, Cys, Gln, Glu, His, Ile, Phe, Pro, or Ser. Wild-type REGγ and the Lys 188 variants were expressed in E. coli, purified, and the activation specificity of each protein was measured using the diagnostic peptides LLVY (SEQ ID NO:1)-MCA, LRR-MCA, and LLE-βNA. Except for the K188R variant, all Lys 188 mutants stimulated the hydrolysis of LRR-MCA by the proteasome to the same extent or slightly better than wild-type REGγ. Substitution of negatively-charged Glu or Asp for the positively-charged Lys188 produced mutants with activation properties almost identical to REGα.
To determine the degree to which the activation specificity of REGγ(K188E/D) variants matches that of REGα, proteasomal cleavage of a series of fluorogenic peptides was measured in the presence of each activator.

[2] = Heptamer stability on rechromatography (Superdex 200 size exclusion column); type: physicochemical; conditions: for Percent heptamer: after second gel filtration; for Heptamers dissociated during the second gel filtration: Superdex 200
Source text: To examine the effect of Lys188 substitution on REGγ heptamer stability, the wildtype and Lys 188 variant heptamers were rechromatographed on the Superdex 200 (26/60) size exclusion column used for purification. […] Replacement of Lys 188 by Pro or Phe severely affected the stability of REGγ heptamer.

[3] = target: T2, proteasome (Homo sapiens, UniProt P28072+P28074+Q99436); assay: REGα(N146Y)/REGβ(N135Y) competition assay for relative proteasome affinity; type: binding; conditions: in terms of REGα(N146Y)/REGβ(N135Y) competition; wild-type REGγ 100
Source text: As a measure of the relative affinities of REGγ and the REGγLys188 mutants for the proteasome, a competition assay was used. See Li et al. (2000), The Proteasome Activator 11S REG or PA28: Chimeras Implicate Carboxyl-Terminal Sequences in Oligomerization and Proteasome Binding But Not in the Activation of Specific Proteasome Catalytic Subunits. J. Mol. Biol. 299:641-54. All REGγLys188 mutants were relatively resistant to REGα(N146Y)/REGβ(N135Y) competition with apparent proteasome affinities varying from 40% to 90% that of wild-type REGγ.

[4] = target: proteasome β subunits (T, CT/PGPH) (Homo sapiens, UniProt P28072+P28074+Q99436); assay: Affinity labeling of proteasome β subunits with 125I-YL3-VS in the presence of REGs; type: biochemical; conditions: mean±S.D.
Source text: To obtain estimates of substrate access to the proteasome's central chamber in the presence of REGγ and REGγ(K188E), the active site-directed probe, ^125I-YL3-VS, which covalently modifies all three active β-subunits in an activity dependent manner, was used. […] The phosphoimages show increased labeling of CT/PGPH and T subunits in the presence of REGγ and REGγ(K188E). The data further reveal that REGγ increased the rate of T-subunit labeling 4.7±2.6 (mean±S.D.) fold and the rate of CT/PGPH labeling 4.4±1.7 (mean±S.D.) fold over that seen with proteasome alone. Stimulation by the mutant REGγ(K188E) was greater, being 10.8±4.9 (mean±S.D.) fold for the T-subunit and 11.9±4.8 (mean±S.D.) fold for the CT/PGPH subunit. […] The finding that REGγ increased labeling of the CT and PGPH subunits was unexpected as the wild type activator suppresses hydrolysis of the CT substrate sLLVY (SEQ ID NO:1)-MCA.

[5] = target: T3, proteasomes (Homo sapiens, UniProt P28072+P28074+Q99436); assay: Proteasomal degradation of fluorescein-labeled polyQ peptides (molecular exclusion chromatography); type: biochemical; conditions: for % Degraded, substrate F1-EPQPQ / % Degraded, substrate F1-KSQPQ / % Degraded, substrate F1-QHQ / % Degraded, substrate F1-QPQ / % Degraded, substrate F1-QQQ: proteasome + activator, 5 hr incubation
Protocol: The following peptides were synthesized using routine peptide synthesis:
Each peptide was incubated for 5 hr with proteasomes alone, proteasomes+REGγ, proteasome+REGγ(K188E) or proteasomes+REGα/β. Degradation was assayed by molecular exclusion chromatography using fluorescein as a signal (see FIG. 2). The degradation products were identified by HPLC-MS (FIG. 3). […] By contrast, in the presence of REGγ(K188E) the various polyQ peptides were degraded 5 to 10-fold faster.

[6] = target: T2, proteasome; assay: Proteasomal hydrolysis of natural peptides P21 and BBC1 (HPLC); type: biochemical; conditions: 21-residue peptide P21; result in words
Protocol: Proteasomal hydrolysis of a 21 -residue peptide (P21) and a 49-residue peptide (BBC1) were prepared as described by Zhang et al. (1998), Proteasome Activation by REG Molecules Lacking Homolog-specific Inserts, J. Biol. Chem. 273:9501-09. Digestion products were applied to a C18 HPLC column and separated with a gradient of 0-45% acetonitrile containing 0.1% trifluoroacetic acid. To identify the products derived from P21, fractions were collected manually, concentrated, and subjected to mass spectrometry.

[7] = target: T3, proteasomes; assay: Proteasomal degradation of the fluorescein-tagged C31 peptide of APP; type: biochemical; conditions: result in words
Protocol: A 31-residue C-terminal peptide (C31) of APP, the transmembrane protein that gives rise to amyloid plaque forming Aβ peptides characteristic of Alzheimer's disease, was synthesized using routine peptide synthesis. A fluorescein tag was added to the peptide. C31 peptide is cytotoxic. See Lu et al. (2000), a Second Cytotoxic Proteolytic Peptide Derived from Amyloid Beta-Protein Precursor, Nat. Med. 6:397-404.
The C31 was incubated with proteasomes alone, proteasomes+REGγ, proteasome+REGγ(K188E) or proteasomes+REGα/β, and degradation was assayed as described in Example 8.

[8] = target: T1, Human red blood cell proteasomes; assay: Activation of fluorogenic peptide hydrolysis by the proteasome in the presence of REG variants; type: biochemical; conditions: for Stimulation of cleavage (x-fold) AAF-MCA: substrate AAF-MCA; for Stimulation of cleavage (x-fold) DEVD-MCA: substrate DEVD(SEQ ID NO: 8)-MCA; for Stimulation of cleavage (x-fold) FSR-MCA: substrate FSR-MCA; for Stimulation of cleavage (x-fold) IEGR-MCA: substrate IEGR(SEQ ID NO: 5)-MCA; for Stimulation of cleavage (x-fold) IETD-MCA: substrate IETD(SEQ ID NO: 6)-MCA; for Stimulation of cleavage (x-fold) LGHD-MCA: substrate LGHD(SEQ ID NO: 7)-MCA; for Stimulation of cleavage (x-fold) LY-MCA: substrate LY-MCA; for Stimulation of cleavage (x-fold) VLK-MCA: substrate VLK-MCA; for Stimulation of cleavage (x-fold) YVAD-MCA: substrate YVAD(SEQ ID NO: 9)-MCA

Stimulation of cleavage (x-fold) LLE [1]	Stimulation of cleavage (x-fold) LLVY [1]	Stimulation of cleavage (x-fold) LRR [1]	Relative affinity for proteasome [3]	Increase in rate of CT/PGPH labeling over proteasome alone [4]	Increase in rate of T-subunit labeling over proteasome alone [4]	% Degraded, substrate F1-EPQPQ [5]	% Degraded, substrate F1-KSQPQ [5]	% Degraded, substrate F1-QHQ [5]	Hydrolysis of P21 by the proteasome [6]	Stimulation of cleavage (x-fold) AAF-MCA [8]	Stimulation of cleavage (x-fold) DEVD-MCA [8]	Stimulation of cleavage (x-fold) FSR-MCA [8]	Stimulation of cleavage (x-fold) IEGR-MCA [8]	Stimulation of cleavage (x-fold) IETD-MCA [8]	Stimulation of cleavage (x-fold) LGHD-MCA [8]	Stimulation of cleavage (x-fold) LY-MCA [8]	Stimulation of cleavage (x-fold) VLK-MCA [8]	Stimulation of cleavage (x-fold) YVAD-MCA [8]	Substance	Percent heptamer [2]	further results
0.6 x-fold	0.4 x-fold	12 x-fold and 11 x-fold	100	4.4±1.7 fold	4.7±2.6 fold	5%	15%	5%	decreased	1 x-fold	2 x-fold	7 x-fold	1 x-fold	1 x-fold	1 x-fold	2 x-fold	5 x-fold	0.9 x-fold	REGγ: wild-type 11S REG proteasome activator subunit, a homo-heptamer found principally in the nucleus	>95%	Percentage that remained heptamers on rechromatography ([2]; Superdex 200 second gel filtration): remained fully heptameric; % Degraded, substrate F1-QPQ [5]: 5%; % Degraded, substrate F1-QQQ [5]: 15%; Degradation of polyQ peptides ([5]; result in words): resistant to degradation; Degradation of C31 peptide by proteasomes [7]: Only trace amounts; Stimulation of cleavage of the LRR-MCA substrate ([8]; compared to the basal rate in the absence of REGγ (Example 10)): 10-20 fold; Proteasomal cleavage of sucLLVY-MCA ([8]; result in words): does not promote
9 x-fold	14 x-fold	15 x-fold	90	–	–	–	–	–	markedly increased	4 x-fold	9 x-fold	7 x-fold	2 x-fold	26 x-fold	11 x-fold	3 x-fold	6 x-fold	8 x-fold	γK188D: mutant REGγ in which Lys188 was changed to Asp	50%	Activation properties compared with REGα [1]: virtually identical to REGα; Heptamers dissociated during the second gel filtration [2]: More than half
9 x-fold	14 x-fold	15 x-fold	90	11.9±4.8 fold	10.8±4.9 fold	80%	80%	50%	markedly increased	4 x-fold	8 x-fold	7 x-fold	2 x-fold	21 x-fold	10 x-fold	3 x-fold	6 x-fold	7 x-fold	γK188E: mutant REGγ in which Lys188 was changed to Glu	50%	Activation properties compared with REGα [1]: virtually identical to REGα; Heptamers dissociated during the second gel filtration [2]: More than half; % Degraded, substrate F1-QPQ [5]: 50%; % Degraded, substrate F1-QQQ [5]: >95%; Degradation of C31 peptide by proteasomes [7]: extensively degraded; Cleavage of peptides diagnostic for the CT-like or PGPH active sites ([8]; result in words): substantially more than REGγ
